Reference: patent WO2009082624A2 (dated 2009)

Experiments:
[1] = biological target: T1, human IL-23 (p19/p40 heterodimer), recombinant (human, UniProt Q9NPF7 20-189; P29460 23-328); assay: cell-based or functional assay
T1 sequence 1: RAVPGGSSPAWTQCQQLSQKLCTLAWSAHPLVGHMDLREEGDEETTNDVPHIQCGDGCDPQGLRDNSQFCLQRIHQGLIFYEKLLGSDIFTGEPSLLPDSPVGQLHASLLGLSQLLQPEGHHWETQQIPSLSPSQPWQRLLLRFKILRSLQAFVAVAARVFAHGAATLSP
T1 sequence 2: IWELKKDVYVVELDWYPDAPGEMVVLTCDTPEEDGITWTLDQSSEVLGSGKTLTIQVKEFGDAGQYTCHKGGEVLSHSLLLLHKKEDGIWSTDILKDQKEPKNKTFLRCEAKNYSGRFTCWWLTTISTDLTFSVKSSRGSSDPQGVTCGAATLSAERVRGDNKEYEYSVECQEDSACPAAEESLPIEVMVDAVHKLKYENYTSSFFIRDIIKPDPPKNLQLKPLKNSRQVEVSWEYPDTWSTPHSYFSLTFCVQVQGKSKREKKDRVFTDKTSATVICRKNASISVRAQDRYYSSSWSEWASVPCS

[2] = biological target: T1, human IL-23 (p19/p40 heterodimer), …; assay: SPR off-rate analysis (Biacore T-100), IL-23 immobilised, 1:1 model
[3] = biological target: T1, human IL-23 (p19/p40 heterodimer), …; assay: SPR (Biacore T-100), IL-23 immobilised on CM5, bivalent interaction model

- IC50, IL-23-mediated IL-17A/A production in murine splenocytes [1]: 26 nM
- koff [2]: ~0.0004 s⁻¹
- Kd [3]: 0.8 nM
B1: human IL-23R-Fc soluble receptor (ZymoGenetics) (Fc fusion)
chain: GITNINCSGHIWVEPATIFKMGMNISIYCQAAIKNCQPRKLHFYKNGIKERFQITRINKTTARLWYKNFLEPHASMYCTAECPKHFQETLICGKDISSGYPPDIPDEVTCVIYEYSGNMTCTWNAGKLTYIDTKYVVHVKSLETEEEQQYLTSSYINISTDSLQGGKKYLVWVQAANALGMEESKQLQIHLDDIVIPSAAVISRAETINATVPKTIIYWDSQTTIEKVSCEMRYKATTNQTWNVKEFDTNFTYVQQSEFYLEPNIKYVFQVRCQETGKRYWQPWSSPFFHKTPETVPQVTSKAFQHDTWNSGLTVASISTGHLTSDNRGDIG
